Data published in patent US20100279923A1.

Target: T1, factor XII (FXII/FXIIa) in rat plasma (rat) (UniProt D3ZTE0)
T1 sequence (looked up): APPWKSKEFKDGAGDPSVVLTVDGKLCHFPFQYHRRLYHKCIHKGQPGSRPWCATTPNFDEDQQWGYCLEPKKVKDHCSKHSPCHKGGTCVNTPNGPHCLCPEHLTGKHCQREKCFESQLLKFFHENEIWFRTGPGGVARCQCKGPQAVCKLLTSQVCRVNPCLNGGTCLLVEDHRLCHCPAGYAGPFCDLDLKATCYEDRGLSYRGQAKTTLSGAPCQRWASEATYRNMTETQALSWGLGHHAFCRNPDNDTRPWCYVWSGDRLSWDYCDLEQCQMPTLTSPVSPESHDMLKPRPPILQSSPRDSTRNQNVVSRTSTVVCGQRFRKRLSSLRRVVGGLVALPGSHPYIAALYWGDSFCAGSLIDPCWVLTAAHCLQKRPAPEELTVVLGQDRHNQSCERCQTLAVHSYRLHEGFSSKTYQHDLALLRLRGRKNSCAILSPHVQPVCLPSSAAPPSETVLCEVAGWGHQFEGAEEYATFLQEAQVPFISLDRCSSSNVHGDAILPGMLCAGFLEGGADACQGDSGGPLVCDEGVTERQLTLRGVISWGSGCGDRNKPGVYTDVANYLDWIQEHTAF
Test: cell-based or functional assay

FXII activity [% of the norm] in rat plasma spiked with 0.98 U/mL Berinert P (% of the norm): 215
FXII activity [% of the norm] in rat plasma spiked with 2.4 U/mL Berinert P (% of the norm): 94
FXII activity [% of the norm] in rat plasma spiked with 4.5 U/mL Berinert P (% of the norm): 85
FXII activity [% of the norm] in rat plasma spiked with 9.92 U/mL Berinert P (% of the norm): 55
FXII activity [% of the norm] in rat plasma spiked with 16.7 U/mL Berinert P (% of the norm): 25
B1: Berinert P (C1 esterase inhibitor) (protein, human, UniProt P05155 23-500, looked up)
chain: NPNATSSSSQDPESLQDRGEGKVATTVISKMLFVEPILEVSSLPTTNSTTNSATKITANTTDEPTTQPTTEPTTQPTIQPTQPTTQLPTDSPTQPTTGSFCPGPVTLCSDLESHSTEAVLGDALVDFSLKLYHAFSAMKKVETNMAFSPFSIASLLTQVLLGAGENTKTNLESILSYPKDFTCVHQALKGFTTKGVTSVSQIFHSPDLAIRDTFVNASRTLYSSSPRVLSNNSDANLELINTWVAKNTNNKISRLLDSLPSDTRLVLLNAIYLSAKWKTTFDPKKTRMEPFHFKNSVIKVPMMNSKKYPVAHFIDQTLKAKVGQLQLSHNLSLVILVPQNLKHRLEDMEQALSPSVFKAIMEKLEMSKFQPTLLTLPRIKVTTSQDMLSIMEKLEFFDFSYDLNLCGLTEDPDLQVSAMQHQTVLELTETGVEAAAASAISVARTLLVFEVQQPFLFVLWDQQHKFPVFMGRVYDPRA
